Assay results from paper PMC7570948 (2020).
Blank lines part the entries; values can stand above or below the binder they belong to.

Tests used:
[1] = target: T1, CCR7-eGFP stably expressed on 300-19 pre-B cells (human, UniProt P32248 25-378); assay: FACS; 37°C, competition with 25 nM CCL19-Dy649P1 (printed as EC50)
T1 chain: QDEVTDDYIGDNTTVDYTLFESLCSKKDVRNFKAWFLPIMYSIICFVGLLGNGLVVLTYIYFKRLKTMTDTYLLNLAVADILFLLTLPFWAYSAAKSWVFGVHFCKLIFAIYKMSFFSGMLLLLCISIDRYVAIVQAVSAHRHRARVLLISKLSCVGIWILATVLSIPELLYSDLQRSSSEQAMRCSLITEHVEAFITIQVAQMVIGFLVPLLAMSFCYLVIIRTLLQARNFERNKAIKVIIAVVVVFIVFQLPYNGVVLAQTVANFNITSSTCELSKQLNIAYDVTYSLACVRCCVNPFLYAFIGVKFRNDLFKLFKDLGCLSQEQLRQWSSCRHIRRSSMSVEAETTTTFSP

[2] = target: T1, CCR7-eGFP stably expressed on 300-19 …; assay: FACS; 10°C, competition with 25 nM CCL19-Dy649P1 (printed as EC50)
[3] = target: T1, CCR7-eGFP stably expressed on 300-19 …; assay: FACS; 37°C, competition with 25 nM CCL19-Dy649P1 (printed as EC50; partial inhibition)

IC50 [1]: 14.1 nM | IC50 [2]: 10.1 nM
B1: CCL19 (synthetic, unlabeled human CCL19) (ligand)
chain: GTNDAEDCCLSVTQKPIPGYIVRNFHYLLIKDGCRVPAVVFTTLRGRQLCAPPDQPWVERIIQRLQRTSAKMKRRSS

IC50 [3]: 9.2 nM
B2: CXCL14 (synthetic, unlabeled human CXCL14) (ligand)
chain: SKCKCSRKGPKIRYSDVKKLEMKPKYPHCEEKMVIITTKSVSRYRGQEHCLHPKLQSTKRFIKWYNAWNEKRRVYEE
